Source: article PMC3807668, “Structure of the CRISPR Interference Complex CSM Reveals Key Similarities with Cascade” (Molecular Cell, 2013)
Values joined by “and” are separate entries in the source; they are usually repeats but may differ in a detail not shown here. Identical values can stand only once.

T1: Sso1428 with C-terminal tandem tag (Strep and 10x His) (S. solfataricus, UniProt Q97YA4 1-558, methylation (residues not given))
T1 chain: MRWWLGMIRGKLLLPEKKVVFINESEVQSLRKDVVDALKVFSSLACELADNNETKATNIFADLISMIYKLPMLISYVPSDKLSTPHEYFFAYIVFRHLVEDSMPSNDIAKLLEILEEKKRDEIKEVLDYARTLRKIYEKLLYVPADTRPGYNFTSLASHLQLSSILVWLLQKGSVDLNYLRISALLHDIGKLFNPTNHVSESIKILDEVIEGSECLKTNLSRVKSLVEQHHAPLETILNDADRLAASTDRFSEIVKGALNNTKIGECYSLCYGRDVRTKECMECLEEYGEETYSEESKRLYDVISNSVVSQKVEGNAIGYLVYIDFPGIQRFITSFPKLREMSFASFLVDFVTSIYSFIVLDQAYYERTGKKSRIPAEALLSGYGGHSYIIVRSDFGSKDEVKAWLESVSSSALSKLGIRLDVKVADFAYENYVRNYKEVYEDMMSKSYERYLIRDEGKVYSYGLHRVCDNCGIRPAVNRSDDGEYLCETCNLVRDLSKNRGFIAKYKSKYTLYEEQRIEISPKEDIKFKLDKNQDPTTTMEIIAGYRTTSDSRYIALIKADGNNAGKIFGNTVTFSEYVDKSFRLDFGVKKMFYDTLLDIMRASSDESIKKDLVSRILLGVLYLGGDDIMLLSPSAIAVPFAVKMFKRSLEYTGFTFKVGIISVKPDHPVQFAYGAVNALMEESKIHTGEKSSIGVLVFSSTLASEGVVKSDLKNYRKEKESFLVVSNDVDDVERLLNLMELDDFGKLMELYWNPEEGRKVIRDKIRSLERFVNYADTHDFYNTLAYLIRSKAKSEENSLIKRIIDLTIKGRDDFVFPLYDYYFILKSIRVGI

B1: Sso1431 (untagged, in the complex purified by tagged Sso1428) (natural protein, UniProt Q97YA1 1-304, looked up)
chain: MILIKLKVKGYITTQMRRIRNYYFSITNYIPSTTLRGAILAEYYNQTGKIDENFYVSPAYPIKTAPAHYFSPAKERKGDEFIEVKRILEKKEKEFEANKPIEEIMKLEIDGKHPKPKIGSLITYEGETDKENKYREFSSKSIIQMHVAIDKTSISSYKGMLFAYEYKEFDEMWAIASDSEVIDTVKRIKIGRGKNRGNKVVDVEKVREVSLDQSKGLLYCLSPCIGSLFGKTFFKAKYIIGDKSIYSGWFTVDSFSGQKPVFETLREGSLVYVESFSNEKSLMPAGLNFMLRISDLSSILNKVS
modifications: methylation; phosphorylation (residues not given)
notes: Csm4 (Sso1431, Cas5 subfamily RAMP protein) of the CSM complex of S. solfataricus; also called Csm4; Cas5-like RAMP subunit; source: endogenous, S. solfataricus PH1-16; co-purified with tagged Sso1428 (HisTrap, monoQ, gel filtration)
B2: Sso1427 (natural protein, UniProt Q97YA5 1-275, looked up)
chain: MQRSPIRRSNYTPRNEKGLEGVIELQLNVVSDYLHVGSGKYDVEVMRSVSDVKRLVEDYLSGGNKRIPNNVDQYFSMVAFLMVRNKDNVVIPGSTIKGMVRSRLELSVPGSCYIVTGHSTSSSAVYKRIFNPDPNRGSDRFDVNKFPQVCPVCDLLGNMGLASRVSLSDFVMTSGKVDYVNVKGRDYEVVTKGSIFAGKVLYKSLKPVEIGMLLYGFGFVKDCNGSKVMLLGRFKFSDKRFGRVKFSLKTPIADCNKLVSDFVKQFNPRYINEEW
modifications: methylation (residues not given)
notes: Sso1427, RAMP subunit of the CSM complex of S. solfataricus; its mass lies within 70 Da of that of Sso1426; also called RAMP subunit; Csm3 paralog; source: endogenous, S. solfataricus PH1-16; co-purified with the tagged subunit (HisTrap, monoQ, gel filtration)
B3: Sso1430 (natural protein, UniProt Q97YA2 1-206, looked up)
chain: MIPIKVSMRNLSSLTIAGGSTISSIDIPLNPLGVPPSTIKGTMRTAVHNLLPNGYTSCGEVEPESIREAHKNGVCDVCKLFGYPDSLTGCFTIDVSKTDYRTSYITRVSIDDKTQRAKEGSLFTQQIILPNSDISFTVYYNCNDERLFKLLLYSILDLRYWRLGRNTMIDVKVNNVEEICKSVKCDEEINGILNQLSRYLWEAENK
modifications: methylation (residues not given)
notes: Sso1430, subunit of the CSM complex of S. solfataricus; also called RAMP subunit; Csm3 paralog; source: endogenous, S. solfataricus PH1-16; co-purified with the tagged subunit (HisTrap, monoQ, gel filtration)

Legend:
[1] = molecular target: T1, Sso1428 with C-terminal tandem tag …; assay: quantitative proteomics with isotope-labelled dipeptides (LC-MS); purified CSM complex spiked with synthetic (15N,13C)-labelled dipeptides joining a peptide of each subunit to the reference peptide of Sso1428, trypsin digest, LTQ-Orbitrap; ratio of peak areas; conditions: both partners purified
[2] = molecular target: T1, Sso1428 with C-terminal tandem tag …; assay: native MS + other: quantitative proteomics with isotope-labelled peptides; exhaustive mass search on the intact mass 427,611 Da; copy numbers of Sso1424, Sso1425 and Sso1426 allowed to vary by one, the others fixed by Table 1; one hit within a mass error of 3%; conditions: both partners purified
[3] = molecular target: B1; assay: native MS; purified CSM complex disassembled in 200 mM ammonium acetate with 5%-20% acetic acid (pH 3.9, 3.5, 3.2); subcomplexes of 357 to 120 kDa assigned by tandem MS; interaction map deduced from the disassembly pattern with the help of the EM shape; conditions: both partners purified
[4] = molecular target: the molecule itself; assay: native MS + other: quantitative proteomics with isotope-labelled peptides; exhaustive mass search on the intact mass 427,611 Da; copy numbers of Sso1424, Sso1425 and Sso1426 allowed to vary by one, the others fixed by Table 1; one hit within a mass error of 3%
[5] = molecular target: B3; assay: native MS; purified CSM complex disassembled in 200 mM ammonium acetate with 5%-20% acetic acid (pH 3.9, 3.5, 3.2); subcomplexes of 357 to 120 kDa assigned by tandem MS; interaction map deduced from the disassembly pattern with the help of the EM shape; conditions: both partners purified
[6] = molecular target: B2; assay: cross-linking; purified CSM complex (1 ug/ul) with a 1:1 mixture of d4 and d0 BS3, 1 hr at room temperature; cross-linked peptides found by MS (MassMatrix) and validated by hand; conditions: both partners purified

Row | stoichiometry N [1] | stoichiometry N [2] | binding result [3] | binding result [5] | binding result [6] | Binder | stoichiometry N [4]
1 | 0.67 subunit:Sso1428 and 0.65 subunit:Sso1428 and 0.7 subunit:Sso1428 | 1 subunit:Sso1428 | – | – | – | B1 | –
2 | 0.8 subunit:Sso1428 and 0.79 subunit:Sso1428 and 0.83 subunit:Sso1428 and 0.81 subunit:Sso1428 | 1 subunit:Sso1428 | binds | – | – | B2 | –
3 | 1.45 subunit:Sso1428 and 1.35 subunit:Sso1428 and 1.56 subunit:Sso1428 | 1 subunit:Sso1428 | – | – | – | Sso1425 (natural protein, UniProt Q97YA7 1-250, looked up, methylation; phosphorylation (residues not given), Sso1425, RAMP subunit of the CSM complex of S. solfataricus; also called RAMP subunit; Csm3 paralog; source: endogenous, S. solfataricus PH1-16; co-purified with the tagged subunit (HisTrap, monoQ, gel filtration)) MKMSCMDLDVITTVVKIEGKLRNETLLRVGKGKTQDFAEATDNPIIKYRDRPLIPGSSLKGAFRSLVESYTKSLNDSKYYVCDLDDNSCVSCEEKKKDNGIVEGRYCIPCILFGFKDLASRVYILDAIAEKYSISQRTMVAINRVFGGQMPGHLYTLDYVDPGSEFSFMMMIYNLNLIEGEKDWKAKSVEALKFLLATLVREGIFVGARKSVGYGLIKLVDAKVSLYKAPDHLVSPVIVKKLEEVIGTNG | –
4 | 4.85 subunit:Sso1428 and 4.81 subunit:Sso1428 and 4.73 subunit:Sso1428 and 4.8 subunit:Sso1428 | 4 subunit:Sso1428 | – | – | – | Sso1426 (natural protein, UniProt Q97YA6 1-281, looked up, methylation (residues not given), Sso1426, RAMP subunit assigned to the Csm3 (Cas7-like) family, CSM complex of S. solfataricus; four copies in the CSM complex; its mass lies within 70 Da of that of Sso1427; also called Csm3; Cas7 family RAMP subunit; source: endogenous, S. solfataricus PH1-16; co-purified with the tagged subunit (HisTrap, monoQ, gel filtration)) MVLMVNYTFIDKRVIKRTTMIEGDVETVSPLKIGGGKDNFDPSSLAKDSILKDVEGRPIIPGSSWKGIFRSTGERILRLRNIEVCSGIGKDYCLNNNRKERDFNSALKENVDQALEIFWDYTCLNCKVFGTMSVIGAVRFLDSLPISYSLNTRSMIAISRTEGAVARRALVTVEYVDVGSKFSFKMMGYNLPNYAIGYLITIMKNIHDGFTQVGGHKSRGFGFVKFGKVKFTDLGEKRIGDEDIQVKDVGDLVEGNGDEFFGRMKPFMEAFNNAKIPYPKK | 4 copies
5 | – | 1 subunit:Sso1428 | – | – | – | B3 | –
6 | 0.92 subunit:Sso1428 and 0.91 subunit:Sso1428 and 0.96 subunit:Sso1428 and 0.93 subunit:Sso1428 | 1 subunit:Sso1428 | – | – | – | Sso1432 (natural protein, UniProt Q97YA0 1-252, looked up, methylation (residues not given), Sso1432, RAMP subunit of the CSM complex of S. solfataricus; also called RAMP subunit; Csm3 paralog; source: endogenous, S. solfataricus PH1-16; co-purified with the tagged subunit (HisTrap, monoQ, gel filtration)) MVIQVFRLNFRLRTGFRVGGGQEVGDNVIRQLRIGVEGVMIPASSWKGMFRRVSEIVLNSEDHFEEHSKKEVDTRTINALLKSDEKFRRIAISKVGKEVITQNGINVDKLDSESLSDLRRIYNEYNCPIERLYGSNYFAGGITISDSVIPNASIMERTHVTIERKSKKASEKHLFSEEIIDAEKIEVKVIVRNEFELWKNSLKLLREIGYFIGGSKSRGIGYIVLDEKESEYAVINNFSETPKFSELKRYLS | –
7 | 3.62 subunit:Sso1428 and 3.51 subunit:Sso1428 and 4.03 subunit:Sso1428 and 3.72 subunit:Sso1428 | 3 subunit:Sso1428 | – | binds | binds | Sso1424 (natural protein, UniProt Q97YA8 16-139, looked up, acetylated N-terminal Ser-16; seven methylated lysines (positions not given), Sso1424, small subunit (probably Csm2) of the CSM complex of S. solfataricus; three copies in the CSM complex; also called small subunit; Csm2; source: endogenous, S. solfataricus PH1-16; co-purified with the tagged subunit (HisTrap, monoQ, gel filtration)) SSQDLLDIATRIAISAIKPKPKSNKPEPYVDSSTINSLLSFLQSRRNVNELLLYIMRQAGRDEIDEETGKLLLASLKDRELKDAVNLLGYVKWVYDTLTGLKVNYNNVKGVKTFKELVNILSKV | 3 copies
